B1: Hammerhead Ribozyme (parent)
chain: ACCGGAUGUGCUUUCCGGUCUGAUGAGUCCGUGAGGACGAAACAG

Variants of: B1
Assay: self-cleavage, relative activity (ratio to wild type); higher = more cleavage; co-transcriptional

| Variant | self-cleavage |
| --- | --- |
| AGCGGAUGUGCUUUCCGGUCUGAUGAGGCCGUGAGGACGAAACAG | 0.315 |
| ACCGGAGGUGCGUUCCGGUCUGAUGAGUCCGUGAGGACGAAACAG | 1.23 |
| ACCGGAUAUGCUUUCCGGUCUGAUGAGUCCGGGAGGACGAAACAG | 1.09 |
| ACCGGAUGUGCUUUCCGGUCUGGUAAGUCCGUGAGGACGAAACAG | 0.311 |
| ACCGGAUGUGCUUUCGGGUCGGAUGAGUCCGUGAGGACGAAACAG | 0.278 |
| AGCGGAUGUGCUUUCCGGUCUGAUGAGUCCGUGAGGACGACACAG | 0.271 |
| ACCGGAUGUGCUUUCCGGUAUGUUGAGUCCGUGAGGACGAAACAG | 0.36 |
| ACCGGAUGUGCUUUCCGGUCUGUUGAGUCCGUGAAGACGAAACAG | 0.471 |
| ACCGGAUGUGCUUUCCGGUCGGAUGGGUCCGUGAGGACGAAACAG | 0.343 |
| ACCUGAUGUGCUUUCCGGUCUGAUGGGUCCGUGAGGACGAAACAG | 0.274 |
| ACCGGAUGUGCUUUCCGGUCUGAUGAGUCCCUGAGGACCAAACAG | 0.314 |
| ACCGUAUGUCCUUUCCGGUCUGAUGAGUCCGUGAGGACGAAACAG | 0.708 |
| ACCGGAUGUGCUUUUCGGUCUGAUGAGUCCGUGAGGACGAAACAC | 0.646 |
| ACCGGAUGUGCUUUCCGGUAUGAUGAGUCCGUGAGGUCGAAACAG | 0.353 |
| ACCGGAUGUGCUUUCCGGUCCGAUGAGUCCGAGAGGACGAAACAG | 0.71 |
| ACCGGACGUGCUUUCCGGUCUGAUGAGUCCGUGAGGACGAUACAG | 0.336 |
| ACCGGAUGUGCUUUCCGGUCUGAUGUGUCCGUGAGGAAGAAACAG | 0.6 |
| ACUGGAUGUGCUUUCCCGUCUGAUGAGUCCGUGAGGACGAAACAG | 0.675 |
| ACCGGAUGUGCUUUCCGGUCUGUCGAGUCCGUGAGGACGAAACAG | 0.45 |

| Variant | self-cleavage |
| --- | --- |
| ACCGAAUGUGCUUUCCGGUCUGAAGAGUCCGUGAGGACGAAACAG | 1.21 |
| ACCGGAGGUGCUUUCCGGUCUGAUGAGUCCAUGAGGACGAAACAG | 1.25 |
| ACCGGAUGUGCAUUCCGGUCUGAUGAGUCCGUGAGGACGAAACAC | 0.602 |
| ACCGGAUGUGCUUUCCGGACUGAUGACUCCGUGAGGACGAAACAG | 0.401 |
| ACCGGAUGUGGUUUCCGGUCUGAUGAGUCCGUGAGGACGUAACAG | 0.273 |
| ACCGGAUGUGCUUUCCGGUCUGAUGAGUCCGUUAGGACGAAGCAG | 0.312 |
| UCCGGAUGUGCUUUCCGGUCUGAUGAGUCCGUGAGGACUAAACAG | 0.347 |
| ACUGGAUGUGCUUUCCGGCCUGAUGAGUCCGUGAGGACGAAACAG | 0.539 |
| ACCGGAUGUGCUUUCCGGUCUGCUGAGUCCGUGAGAACGAAACAG | 0.412 |
| ACCGGAUGUGCGUUCCGGUCUGAUGAGUCCGUGAGUACGAAACAG | 0.471 |
| ACCGGAUGUGUUUUCCGGUCUGAGGAGUCCGUGAGGACGAAACAG | 1.02 |
| ACCGGAUGUGCUAUCCGGUCUGAUGAGUCCGUGAGUACGAAACAG | 0.713 |
| ACCGGAUGUGCUUUCCGGUCUGAUGAGUCCAUGUGGACGAAACAG | 0.954 |
| ACCGGAUGUGCUUUCCGGUCUGAUGAGGCCGUGAGGACGAAACUG | 0.397 |
| ACCGGAUGUGCUUUGCGGUCUGAUGAGUCCGUGACGACGAAACAG | 0.456 |
| ACCAGAUGUGCUUUCCGGUCUGAUGAGUGCGUGAGGACGAAACAG | 0.357 |
| ACCGGAUGUGCUUUCCCGUCUGAUGAGUCCGUGAGGACGAACCAG | 0.316 |
| ACCGGAUGUGCUUUACGGUCUGAUGAGUCCUUGAGGACGAAACAG | 0.999 |
| ACCGGAUGUGCUUUCCGGUCUGAUGAGUCCGUGAGGACGAUACCG | 0.377 |

| Variant | self-cleavage |
| --- | --- |
| ACCGGAUGUGCUUUCCGGUCUGAUGAGUCCGUGACGACGAGACAG | 0.329 |
| ACCGGAUGUGCUUUCCGGUCUGAUGAGGCCGUGACGACGAAACAG | 0.562 |
| ACCGGAUGUGCUUUCCGGUCUGAUGAGUCCGUGAUGACGAGACAG | 0.33 |
| ACCGGAUGUGCUUUCCGCUCUGGUGAGUCCGUGAGGACGAAACAG | 0.379 |
| ACCGGAUGUGCGAUCCGGUCUGAUGAGUCCGUGAGGACGAAACAG | 1.25 |
| ACCGGAUGUGCUUUCCGGUCUGAUGAGUCCGUGAGGACGAGGCAG | 0.335 |
| ACCGGAGGUGCUUUCCGGUCUGACGAGUCCGUGAGGACGAAACAG | 1.23 |
| ACCGGAUGUGCUUUCGGGUCUGAUGAGUCCGUGAGGACGAGACAG | 0.398 |
| ACCGGAUGUGCUUUCCUGUCUGAUGAGUCCGUGAAGACGAAACAG | 0.642 |
| ACCGGAUGUGCUUUCCAGACUGAUGAGUCCGUGAGGACGAAACAG | 0.386 |
| ACCGGAUGUGCUAUCCGGUCUGAGGAGUCCGUGAGGACGAAACAG | 1.99 |
| ACCGGAUGUGCUUUCCGGUCUGAUGAGUCCAUGAGGACGUAACAG | 0.297 |
| ACCGGAUGGGCUUUCCCGUCUGAUGAGUCCGUGAGGACGAAACAG | 0.32 |
| AACGGAUGUGCUUUCCGGUCUGAUGAGUCAGUGAGGACGAAACAG | 0.473 |
| ACCAGAUGUGCUUUCCGGUCUGAUUAGUCCGUGAGGACGAAACAG | 0.316 |
| ACCGGAUGUGCUUUCCGGUCUGAUGAGUCAGUGAGGACGAAACUG | 0.441 |
| ACCGGAUGUGCUUUCCGGUCUGGUGUGUCCGUGAGGACGAAACAG | 0.3 |
| ACCGGAUGAGCUUUCCGGUCUGAUCAGUCCGUGAGGACGAAACAG | 0.311 |
| ACCGGAUGUGCUUUCCGGUCUGAGGAGUCCGUGAGGCCGAAACAG | 1.05 |
